Measurements published in publication PMC3430870 (Nature structural & molecular biology, 2011).
Substitutions are numbered along the chain they refer to. Like-named read-outs stand apart in the source and are kept apart here. One block for each binder: values may come before it.

Assays:
Experiment in all cases: SPR
mouse Wnt3a [1] = molecular target: T1, mouse Wnt3a (mouse, UniProt P27467 19-352)
mouse Wnt3a [2] = molecular target: T1, mouse Wnt3a; remark: listed apart in the source
mouse Wnt3a [3] = molecular target: T1, mouse Wnt3a; remark: listed apart in the source
mouse Wnt3a [4] = molecular target: T1, mouse Wnt3a; remark: listed apart in the source
mouse Wnt3a [5] = molecular target: T1, mouse Wnt3a; remark: listed apart in the source

T1 sequence (P27467 19-352): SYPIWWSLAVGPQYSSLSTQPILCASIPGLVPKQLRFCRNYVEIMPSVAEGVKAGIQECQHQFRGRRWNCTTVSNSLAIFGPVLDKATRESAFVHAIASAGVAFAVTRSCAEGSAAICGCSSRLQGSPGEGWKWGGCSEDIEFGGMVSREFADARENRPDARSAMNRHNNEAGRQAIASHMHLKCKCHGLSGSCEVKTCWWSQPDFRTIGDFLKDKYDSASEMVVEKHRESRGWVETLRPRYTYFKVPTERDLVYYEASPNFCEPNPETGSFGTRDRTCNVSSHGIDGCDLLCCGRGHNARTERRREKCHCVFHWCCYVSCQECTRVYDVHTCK

B1: WIF-1_(WD-EGF-I) (human WIF-1 residues 35-210) (domain or fragment, UniProt Q9Y5W5 35-210, looked up)
chain: SLYLWIDAHQARVLIGFEEDILIVSEGKMAPFTHDFRKAQQRMPAIPVNIHSMNFTWQAAGQAEYFYEFLSLRSLDKGIMADPTVNVPLLGTVPHKASVVQVGFPCLGKQDGVAAFEVDVIVMNSEGNTILKTPQNAIFFKTCQQAECPGGCRNGGFCNERRICECPDGFHGPHCE
Kd (mouse Wnt3a [1]): 16.8 µM
Kd (mouse Wnt3a [2]): 16.9 µM
Kd (mouse Wnt3a [3]): 15.9 µM
Kd (mouse Wnt3a [4]): 5.6 µM
Kd (mouse Wnt3a [5]): 9.86 µM

B4: WIF-1WD (WIF domain of human Wnt inhibitory factor 1, residues 35-178) (domain or fragment, UniProt Q9Y5W5 35-178, looked up)
chain: SLYLWIDAHQARVLIGFEEDILIVSEGKMAPFTHDFRKAQQRMPAIPVNIHSMNFTWQAAGQAEYFYEFLSLRSLDKGIMADPTVNVPLLGTVPHKASVVQVGFPCLGKQDGVAAFEVDVIVMNSEGNTILKTPQNAIFFKTCQ
Kd (mouse Wnt3a [4]): 3.4 µM

B6: WIF-1ΔC (human WIF-1 residues 35-346) (domain or fragment, UniProt Q9Y5W5 35-346, looked up)
chain: SLYLWIDAHQARVLIGFEEDILIVSEGKMAPFTHDFRKAQQRMPAIPVNIHSMNFTWQAAGQAEYFYEFLSLRSLDKGIMADPTVNVPLLGTVPHKASVVQVGFPCLGKQDGVAAFEVDVIVMNSEGNTILKTPQNAIFFKTCQQAECPGGCRNGGFCNERRICECPDGFHGPHCEKALCTPRCMNGGLCVTPGFCICPPGFYGVNCDKANCSTTCFNGGTCFYPGKCICPPGLEGEQCEISKCPQPCRNGGKCIGKSKCKCSKGYQGDLCSKPVCEPGCGAHGTCHEPNKCQCQEGWHGRHCNKRYEASLI
Kd (mouse Wnt3a [4]): 0.0216 µM

B7: WIF-1ΔC Met77Trp (domain or fragment, human, UniProt Q9Y5W5 35-346, looked up)
chain: B6 chain with M43W
Kd (mouse Wnt3a [4]): 0.217 µM

Further lines, results first:

Kd (mouse Wnt3a [4]): 2.86 µM
B2: WIF-1_(WD-EGF-I) Met77Trp (domain or fragment, human, UniProt Q9Y5W5 35-210, looked up)
chain: B1 chain with M43W

Kd (mouse Wnt3a [4]): 0.9 µM
B3: WIF-1_(EGFs I-V) (human WIF-1 residues 178-346) (domain or fragment, UniProt Q9Y5W5 178-346, looked up)
chain: QQAECPGGCRNGGFCNERRICECPDGFHGPHCEKALCTPRCMNGGLCVTPGFCICPPGFYGVNCDKANCSTTCFNGGTCFYPGKCICPPGLEGEQCEISKCPQPCRNGGKCIGKSKCKCSKGYQGDLCSKPVCEPGCGAHGTCHEPNKCQCQEGWHGRHCNKRYEASLI

Kd (mouse Wnt3a [4]): 3.21 µM
B5: WIF-1_(WD-EGFs I-III) (human WIF-1 residues 35-274) (domain or fragment, UniProt Q9Y5W5 35-274, looked up)
chain: SLYLWIDAHQARVLIGFEEDILIVSEGKMAPFTHDFRKAQQRMPAIPVNIHSMNFTWQAAGQAEYFYEFLSLRSLDKGIMADPTVNVPLLGTVPHKASVVQVGFPCLGKQDGVAAFEVDVIVMNSEGNTILKTPQNAIFFKTCQQAECPGGCRNGGFCNERRICECPDGFHGPHCEKALCTPRCMNGGLCVTPGFCICPPGFYGVNCDKANCSTTCFNGGTCFYPGKCICPPGLEGEQCE
